Test results from patent US20030044899A1.

Biological target: integrin α3β1 (human) (UniProt P26006)
Experiment: cell-based or functional assay

UniProt P26006, sequence (P26006 33-1051, chain 1 of 2): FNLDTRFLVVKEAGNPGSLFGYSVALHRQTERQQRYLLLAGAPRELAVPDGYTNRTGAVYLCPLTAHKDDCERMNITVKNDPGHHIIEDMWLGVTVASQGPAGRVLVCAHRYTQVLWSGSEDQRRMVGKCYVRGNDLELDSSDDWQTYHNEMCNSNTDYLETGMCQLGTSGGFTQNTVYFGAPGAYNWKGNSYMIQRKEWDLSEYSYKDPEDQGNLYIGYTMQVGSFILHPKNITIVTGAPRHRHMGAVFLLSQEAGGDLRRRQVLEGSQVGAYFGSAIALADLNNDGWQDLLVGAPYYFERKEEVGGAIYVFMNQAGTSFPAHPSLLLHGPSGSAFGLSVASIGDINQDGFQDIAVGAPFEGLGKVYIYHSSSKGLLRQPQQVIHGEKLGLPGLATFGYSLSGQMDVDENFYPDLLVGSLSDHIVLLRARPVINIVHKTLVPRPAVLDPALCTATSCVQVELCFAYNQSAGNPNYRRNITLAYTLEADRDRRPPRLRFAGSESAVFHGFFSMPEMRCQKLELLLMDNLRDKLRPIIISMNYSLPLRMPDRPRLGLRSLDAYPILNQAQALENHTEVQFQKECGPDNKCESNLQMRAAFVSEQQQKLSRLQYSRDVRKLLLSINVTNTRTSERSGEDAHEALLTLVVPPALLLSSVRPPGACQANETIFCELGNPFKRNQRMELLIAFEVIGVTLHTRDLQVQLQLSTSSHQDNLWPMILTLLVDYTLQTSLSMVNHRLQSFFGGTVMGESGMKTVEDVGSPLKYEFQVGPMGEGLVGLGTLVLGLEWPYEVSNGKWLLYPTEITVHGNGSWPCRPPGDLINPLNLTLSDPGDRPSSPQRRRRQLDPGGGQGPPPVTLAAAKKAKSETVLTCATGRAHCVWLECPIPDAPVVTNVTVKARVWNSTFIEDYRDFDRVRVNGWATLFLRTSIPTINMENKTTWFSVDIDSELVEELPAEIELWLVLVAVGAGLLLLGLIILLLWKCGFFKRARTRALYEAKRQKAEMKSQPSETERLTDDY
UniProt P26006, sequence (P05556 21-798, chain 2 of 2, further chain): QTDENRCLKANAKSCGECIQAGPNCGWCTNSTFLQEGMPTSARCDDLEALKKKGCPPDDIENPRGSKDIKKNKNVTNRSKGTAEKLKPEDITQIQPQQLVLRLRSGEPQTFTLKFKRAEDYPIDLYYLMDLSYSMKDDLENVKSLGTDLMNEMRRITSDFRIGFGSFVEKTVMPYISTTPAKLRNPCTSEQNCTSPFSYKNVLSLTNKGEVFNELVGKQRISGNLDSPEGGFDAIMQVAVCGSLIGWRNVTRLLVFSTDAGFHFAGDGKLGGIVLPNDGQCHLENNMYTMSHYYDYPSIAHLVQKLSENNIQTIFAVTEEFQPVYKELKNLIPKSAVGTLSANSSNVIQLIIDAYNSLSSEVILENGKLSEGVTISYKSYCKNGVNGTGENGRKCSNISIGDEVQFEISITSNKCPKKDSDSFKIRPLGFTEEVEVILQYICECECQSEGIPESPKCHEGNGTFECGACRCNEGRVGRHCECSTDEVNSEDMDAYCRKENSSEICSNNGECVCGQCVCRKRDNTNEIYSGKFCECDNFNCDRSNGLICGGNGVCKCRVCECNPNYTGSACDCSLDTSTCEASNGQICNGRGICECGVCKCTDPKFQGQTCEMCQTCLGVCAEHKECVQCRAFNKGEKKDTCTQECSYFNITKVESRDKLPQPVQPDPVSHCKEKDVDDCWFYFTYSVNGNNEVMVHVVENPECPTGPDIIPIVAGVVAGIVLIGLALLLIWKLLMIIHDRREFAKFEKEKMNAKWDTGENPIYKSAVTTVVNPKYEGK

- inhibition of HT-1080 cell binding to r-laminin-10 by mAbs against either α3 or β1: 80%
Substance: recombinant laminin-10 (human α5β1γ1 heterotrimer, α5 chain with C-terminal FLAG epitope) (from UniProt P07942 22-1786; P11047 34-1609) (ligand)
